According to paper doi:10.1101/2025.11.17.688911:

Molecular target: full-length (FL) human MAP9 (GFP::Human MAP9::strepII) (human) (UniProt Q49MG5)
Sequence (Q49MG5 whole entry): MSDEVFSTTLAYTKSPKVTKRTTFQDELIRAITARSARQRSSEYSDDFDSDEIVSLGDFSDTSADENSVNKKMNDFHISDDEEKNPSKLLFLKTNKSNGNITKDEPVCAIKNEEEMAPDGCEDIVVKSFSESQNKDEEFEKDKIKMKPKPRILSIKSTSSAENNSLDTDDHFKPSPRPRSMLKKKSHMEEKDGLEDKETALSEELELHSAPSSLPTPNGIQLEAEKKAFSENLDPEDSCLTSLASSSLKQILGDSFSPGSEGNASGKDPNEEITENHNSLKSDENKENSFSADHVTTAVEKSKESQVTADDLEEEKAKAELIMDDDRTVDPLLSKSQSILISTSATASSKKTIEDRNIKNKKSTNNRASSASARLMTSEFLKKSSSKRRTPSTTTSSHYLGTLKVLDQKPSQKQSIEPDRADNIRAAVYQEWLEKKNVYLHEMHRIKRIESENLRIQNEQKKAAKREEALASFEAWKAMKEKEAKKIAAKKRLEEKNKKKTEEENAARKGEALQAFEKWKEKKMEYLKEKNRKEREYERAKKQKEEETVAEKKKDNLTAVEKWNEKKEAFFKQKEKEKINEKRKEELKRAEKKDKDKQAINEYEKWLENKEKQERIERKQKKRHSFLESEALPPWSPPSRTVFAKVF

FL KIF1A (Human KIF1A::yBBR::strepII) (from UniProt Q12756 1-1690) (natural protein)
run frequency of FL KIF1A on MTs decorated with MAP9 at low concentrations (<60 nM); slightly inhibited at higher concentrations: 2 fold
